Experiments:
[1] = biological target: T1, hu-IL-36β (human); test: SPR (Biacore 8K), biotinylated hu-IL-36β captured, Fab injected, 37 C
T1 construct: Used biotinylated in SPR and some ELISAs; treated here as the same molecule; also called human IL-36β; IL-36b
T1 chain: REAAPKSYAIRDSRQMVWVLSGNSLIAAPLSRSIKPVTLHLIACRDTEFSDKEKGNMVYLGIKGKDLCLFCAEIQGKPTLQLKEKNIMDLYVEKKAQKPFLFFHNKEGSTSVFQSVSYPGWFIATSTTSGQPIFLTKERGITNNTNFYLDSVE
Method: Briefly, a 1:4 dilution of Biotin CAPture Reagent (GE) into HBS-EP buffer (0.01 M HEPES pH 7.4, 0.15 M NaCl, 3 mM EDTA, 0.005% Surfactant P20) was applied to a CAP sensor chip at 2 uL/min flow rate. For kinetics measurements, 6 nM biotinylated human IL-36β was captured at 10 uL/min to achieve ˜50 response units in the second flow cell (FC2). FC1 was kept as a reference. Next, […] serial dilutions of Fab in HBS-P buffer (0.01M HEPES pH 7.4, 0.15M NaCl, 0.005% surfactant P20) from low (3.125 nM) to high (200 nM) were injected (flow rate: 10 uL/min) at 37° C. The sensorgram was recorded and subject to reference and buffer subtraction before evaluating by BIACORE® 8K Evaluation Software (version 1.1.1.7442). Association rates (kₒₙ) and dissociation rates (koff) were calculated using a simple one-to-one Langmuir binding model.

[2] = biological target: T1, hu-IL-36β; test: cell-based or functional assay
[3] = biological target: T2, cy-IL-36β (cynomolgus monkey); test: cell-based or functional assay
T2 chain: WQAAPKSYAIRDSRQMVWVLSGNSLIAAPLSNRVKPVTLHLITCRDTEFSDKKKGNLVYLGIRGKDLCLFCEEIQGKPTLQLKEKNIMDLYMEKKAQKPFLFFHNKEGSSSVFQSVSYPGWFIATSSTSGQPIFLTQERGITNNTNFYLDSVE

[4] = biological target: T1, hu-IL-36β; test: cell-based or functional assay

B1: mAb6_2.6 Fab (Fab, V domains shown)
VH: ELQLQESGPGLVKPSETLSLTCTVSGGSITASNYYWGWIRQPPGKGLEWIGSIDYTGSTYYEPSLKSRVTISVDTSKNQFSLKLSSVTAADTAVYYCATGNYYETYLGFDVWGQGTLVTVSS
VL: ESVLTQPPSVSGAPGQRVTISCTGSSSNIGAHYDVHWYQQLPGTAPKLLIYGNDNRPSGVPDRFSGSKSGTSASLAITGLQAEDEADYYCQSYDYSLSGYVFGGGTKLTVL
notes: Recombinant Fab with 8xHis tag
kon [1]: 850000 M⁻¹ s⁻¹

B2: mAb6.0 IgG (antibody, V domains shown)
VH: QLQLQESGPGLVKPSETLSLTCTVSGGSITSSNYYWGWIRQPPGKGLEWIGSIDYTGSTYYNPSLKSRVTISVDTSKNQFSLKLSSVTAADTAVYYCARGKYYETYLGFDVWGQGTLVTVSS
VL: QESVLTQPPSVSGAPGQRVTISCTGSSSNIGAGYDVHWYQQLPGTAPKLLIYGNTNRPSGVPDRFSGSKSGTSASLAITGLQAEDEADYYCQSYDISLSGWVFGGGTKLTVLG
blocking potency relative to the natural antagonist IL-36Ra, HaCat IL-8 assay [2]: 1000 fold | IC50, HEK Blue SEAP reporter assay with cynomolgus IL-36 on human IL-36 receptor [3]: 1.96 nM | IC50, HEK Blue SEAP reporter assay [4]: 0.64 nM
